According to PMC6107277, “Distinct substrate specificity and physicochemical characterization of native human hepatic thymidine phosphorylase” (PLoS ONE, 2018):

Assays:
[1] = target: the molecule itself; experiment: AUC; sedimentation equilibrium, Beckman XL-A, 15,000 rpm, 20°C, Buffer A, 0.4, 0.2 and 0.1 mg protein/mL, absorbance at 278 nm; global fit to a monomer-dimer-tetramer association model; constants for monomer to dimer (1,2) and dimer to tetramer (2,4)
[2] = target: the molecule itself; experiment: SEC + native gel or EMSA; hydroxyapatite homogeneously purified TP (first peak) on Sephadex G-100 in Buffer A (20 mM potassium phosphate pH 8.0, 1 mM DTT, 1 mM EDTA, 1 mM PMSF), 4°C, calibrated with standard proteins; native-PAGE on 10% gel; native about 100 kDa against about 52 kDa on SDS-PAGE

B1: native human hepatic thymidine phosphorylase (enzyme, human (endogenous in liver), UniProt P19971 11-482, looked up)
chain: APPAPGDFSGEGSQGLPDPSPEPKQLPELIRMKRDGGRLSEADIRGFVAAVVNGSAQGAQIGAMLMAIRLRGMDLEETSVLTQALAQSGQQLEWPEAWRQQLVDKHSTGGVGDKVSLVLAPALAACGCKVPMISGRGLGHTGGTLDKLESIPGFNVIQSPEQMQVLLDQAGCCIVGQSEQLVPADGILYAARDVTATVDSLPLITASILSKKLVEGLSALVVDVKFGGAAVFPNQEQARELAKTLVGVGASLGLRVAAALTAMDKPLGRCVGHALEVEEALLCMDGAGPPDLRDLVTTLGGALLWLSGHAGTQAQGAARVAAALDDGSALGRFERMLAAQGVDPGLARALCSGSPAERRQLLPRAREQEELLAPADGTVELVRALPLALVLHELGAGRSRAGEPLRLGVGAELLVDVGQRLRRGTPWLRVHRDGPALSGPQSRALQEALVLSDRAPFAAPSPFAELVLPPQQ
modifications: N-terminal blocked by an unknown moiety (neither N-formyl nor pyrrolidone carboxylic acid)
notes: thymidine phosphorylase / PD-ECGF, human liver, native subunit of about 50 kDa (49,882 by electrospray MS); DPSPEPKQ = 28-35; Native tissue protein; also called TP; human liver TP; source: purified from human liver (autopsy material) by DEAE-cellulose, Phenyl Sepharose CL-4B and hydroxyapatite chromatography; also used as DEAE-cellulose partially purified fraction and as 50,000 x g liver cytosol
Ka (1,2), monomer to dimer [1]: 581000 M⁻¹ | Ka (2,4), dimer to tetramer [1]: 10100 M⁻¹ | stoichiometry N [2]: 2
